Source: patent publication US20130315928A1 (published 2013)

Experiments:
[1] = molecular target: T1, equine choriogonadotropin (eCG) or PMSG (equine, UniProt P01220 25-120; P08751 21-169); test: ELISA on adsorbed commercial eCG
T1 construct: They are written as one protein; also called commercial eCG (Synchro Part, CEVA); purified eCG (6000 IU/mg)
Experimental: (§1) After washing five times, a secondary antibody (peroxidase-coupled mouse anti-IgM, Jackson Laboratories) was incubated for 1 h at 37° C. (100 μl/well). After washing five times, the peroxidase is developed with TMB (100 μl/well), for 30 min at room temperature and then stopped with 1M H₂SO₄ (50 μl/well).
(§2) In the same way, the antibodies were evaluated on the commercial eCG (Synchro Part, CEVA, Libourne, France) used in treatments for induction of ovulation in sheep and goats. An isotypic control (IgM directed against another type of antigen very remote from the gonadotropic hormones). Each antibody was incubated at a concentration of 10 μg/ml and 1 μg/ml.

[2] = molecular target: T2, ovine follicle-stimulating hormone (ovine, UniProt P01218 25-120; P01227 20-129); test: ELISA, hormone adsorbed at 2 µg/ml, MAb at 0.1-1-10 µg/ml, anti-IgM peroxidase; oFSH is the 100% reference
[3] = molecular target: T3, ovine luteinizing hormone (ovine, UniProt P01218 25-120; P01231 21-141); test: ELISA, hormone adsorbed at 2 µg/ml, MAb at 0.1-1-10 µg/ml, anti-IgM peroxidase; oLH is the 100% reference
[4] = molecular target: T4, human follicle-stimulating hormone (human, UniProt P01215 25-116; P01225 19-129); test: ELISA, hormone adsorbed at 2 µg/ml, anti-IgM peroxidase; relative to oFSH
T4 construct: Alpha/beta heterodimer; also called hFSH; human FSH
T4 sequence (P01215 25-116, chain 1 of 2): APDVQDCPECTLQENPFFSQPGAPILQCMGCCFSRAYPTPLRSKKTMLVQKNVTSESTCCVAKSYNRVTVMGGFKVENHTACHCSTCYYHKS
T4 sequence (P01225 19-129, chain 2 of 2): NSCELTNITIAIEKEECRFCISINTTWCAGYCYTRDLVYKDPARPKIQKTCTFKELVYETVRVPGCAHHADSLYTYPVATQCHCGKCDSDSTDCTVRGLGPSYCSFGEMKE
Experimental: as §1

[5] = molecular target: bovine follicle-stimulating hormone (bovine, UniProt P01217 25-120; P04837 21-129); test: as above
Experimental: as §1

[6] = molecular target: porcine follicle-stimulating hormone (porcine, UniProt P01219 25-120; P01228 21-129); test: as above
Experimental: as §1

[7] = molecular target: T3, ovine luteinizing hormone; test: cell-based or functional assay
[8] = molecular target: T2, ovine follicle-stimulating hormone; test: cell-based or functional assay
[9] = molecular target: T5, human chorionic gonadotropin (human, UniProt P01215 25-116; P0DN86 21-165); test: ELISA, hormone adsorbed at 2 µg/ml, anti-IgM peroxidase; relative to oLH
T5 construct: Alpha/beta heterodimer; also called hCG
T5 sequence (P01215 25-116, chain 1 of 2, other chains not shown): as the sequence (P01215 25-116, chain 1 of 2) above
Experimental: as §1

[10] = molecular target: bovine luteinizing hormone (bovine, UniProt P01217 25-120; P04651 21-141); test: as above
Experimental: as §1

[11] = molecular target: porcine luteinizing hormone (porcine, UniProt P01219 25-120; P01232 21-141); test: as above
Experimental: as §1

[12] = molecular target: T1, equine choriogonadotropin (eCG) or PMSG; test: ELISA on commercial eCG, antibody at 10 µg/ml
Experimental: as §1, §2

[13] = molecular target: T1, equine choriogonadotropin (eCG) or PMSG; test: ELISA on commercial eCG, antibody at 1 µg/ml
Experimental: as §1, §2

[14] = molecular target: T1, equine choriogonadotropin (eCG) or PMSG; test: ELISA on purified eCG (6000 IU/mg)

T1 sequence (P01220 25-120 limits assumed, chain 1 of 2): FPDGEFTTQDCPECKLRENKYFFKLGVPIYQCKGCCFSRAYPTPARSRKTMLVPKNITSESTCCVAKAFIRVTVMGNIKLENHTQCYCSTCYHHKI
T1 sequence (P08751 21-169 limits assumed, chain 2 of 2): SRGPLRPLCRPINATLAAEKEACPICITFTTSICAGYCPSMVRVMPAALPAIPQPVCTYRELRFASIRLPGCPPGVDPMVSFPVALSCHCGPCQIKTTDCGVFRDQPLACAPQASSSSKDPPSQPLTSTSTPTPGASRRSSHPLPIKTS

| percentage of cross reaction (OD hormone tested / OD ovine hormone x 100) [2] | percentage of cross reaction (OD hormone tested / OD ovine hormone x 100) [3] | percentage of cross reaction (OD hormone tested / OD ovine hormone x 100) [4] | percentage of cross reaction (OD hormone tested / OD ovine hormone x 100) [5] | percentage of cross reaction (OD hormone tested / OD ovine hormone x 100) [6] | potentiating effect on cAMP secretion (in vitro bioassay) [7] | potentiating effect on cAMP secretion (in vitro bioassay) [8] | percentage of cross reaction (OD hormone tested / OD ovine hormone x 100) [9] | percentage of cross reaction (OD hormone tested / OD ovine hormone x 100) [10] | percentage of cross reaction (OD hormone tested / OD ovine hormone x 100) [11] | Binder | binding result [1] | OD [12] | OD [13] | binding result [14] |
| --- | --- | --- | --- | --- | --- | --- | --- | --- | --- | --- | --- | --- | --- | --- |
| 100% | 100% | 100% | 460% | 100% | 150% | 150% | 72% | 121% | 170% | monoclonal antibody 9A4 A7 D3 (hybridoma CNCM I-4333) (antibody, V domains shown, Hybridoma antibody raised against ovine LH; The VL as determined begins KTQTTSS; also called MAb D3; IgM D3) VH: EVQLQESGAELVRPGTSVKISCKASGYTFTNYWLGWVKQRPGHGLEWIGDIYPGGGYTNYNEKFKGKATLTADTSSSTAYMQLSSLTSEDSAVYFCARTPLYGSSYGGFAYWGQGTLVTVSA VL: KTQTTSSLSASLGDRVTISCSASQGISNYLNWYQQKPDGTVKLLIYYTSSLHSGVPSRFSGSGSGTDYSLTISNLEPEDIATYYCQQYSKLPWTFGGGTKLEIK | no binding (tested: 10 µg/ml and 1 µg/ml) | 0.091 OD | 0.102 OD | – |
| 100% | 100% | 100% | 430% | 137% | 150% | 150% | 97% | 122% | 168% | monoclonal antibody 9A4 D4 B6 (hybridoma CNCM I-4334) (antibody, V domains shown, Hybridoma antibody raised against ovine LH; also called MAb B6; IgM B6) VH: EVQLQQSGAELVRPGTSVKISCKASGYTFTNYWLGWVKQRPGHGLEWIGDIYPGGGYTNYNEKFKGKATLTADTSSSTAYMQLSSLTSEDSAVYFCARTPLYGSSYGGFAYWGQGTLVTVSA VL: DIVMTQATSSLSASLGDRVTISCSASQGISNYLNWYQQKPDGTVKLLIYYTSSLHSGVPSRFSGSGSGTDYSLTISNLEPEDIATYYCQQYSKLPWTFGGGTKLEIK | no binding (tested: 10 µg/ml and 1 µg/ml) | 0.088 OD | 0.078 OD | – |
| 100% | 100% | 113% | 380% | 230% | – | – | 68% | 100% | 140% | monoclonal antibody 1A6 C4 G11 (hybridoma CNCM I-4332) (antibody, V domains shown, Hybridoma antibody raised against ovine LH; also called MAb G11; IgM G11) VH: EVKLQQSGAELVRPGTSVKISCKASGYTFTNYWLGWVKQRPGHGLEWIGDIYPGGGYTNYNEKFKGKATLTADTSSSTAYMQLSSLTSEDSAVYFCARTPLYGSSYGGFAYWGQGTLVTVSA VL: DIQMTQTTSSLSASLGDRVTISCSASQGISNYLNWYQQKPDGTVKLLIYYTSSLHSGVPSRFSGSGSGTDYSLTISNLEPEDIATYYCQQYSKLPWTFGGGTKLEIK | – | 0.09 OD | 0.088 OD | no binding |
